Target: SERCA2-mTurquoise2 (UniProt P16615)
Assay: FRET or BRET; three channel sensitized emission FRET on living HEK293-T cells, SERCA2-mTurquoise2 donor and GSK3β-sYFP2 acceptor, confocal microscope; normoxia or 60 min hypoxia followed by 30 min reoxygenation

Chain of UniProt P16615 (P16615 whole entry): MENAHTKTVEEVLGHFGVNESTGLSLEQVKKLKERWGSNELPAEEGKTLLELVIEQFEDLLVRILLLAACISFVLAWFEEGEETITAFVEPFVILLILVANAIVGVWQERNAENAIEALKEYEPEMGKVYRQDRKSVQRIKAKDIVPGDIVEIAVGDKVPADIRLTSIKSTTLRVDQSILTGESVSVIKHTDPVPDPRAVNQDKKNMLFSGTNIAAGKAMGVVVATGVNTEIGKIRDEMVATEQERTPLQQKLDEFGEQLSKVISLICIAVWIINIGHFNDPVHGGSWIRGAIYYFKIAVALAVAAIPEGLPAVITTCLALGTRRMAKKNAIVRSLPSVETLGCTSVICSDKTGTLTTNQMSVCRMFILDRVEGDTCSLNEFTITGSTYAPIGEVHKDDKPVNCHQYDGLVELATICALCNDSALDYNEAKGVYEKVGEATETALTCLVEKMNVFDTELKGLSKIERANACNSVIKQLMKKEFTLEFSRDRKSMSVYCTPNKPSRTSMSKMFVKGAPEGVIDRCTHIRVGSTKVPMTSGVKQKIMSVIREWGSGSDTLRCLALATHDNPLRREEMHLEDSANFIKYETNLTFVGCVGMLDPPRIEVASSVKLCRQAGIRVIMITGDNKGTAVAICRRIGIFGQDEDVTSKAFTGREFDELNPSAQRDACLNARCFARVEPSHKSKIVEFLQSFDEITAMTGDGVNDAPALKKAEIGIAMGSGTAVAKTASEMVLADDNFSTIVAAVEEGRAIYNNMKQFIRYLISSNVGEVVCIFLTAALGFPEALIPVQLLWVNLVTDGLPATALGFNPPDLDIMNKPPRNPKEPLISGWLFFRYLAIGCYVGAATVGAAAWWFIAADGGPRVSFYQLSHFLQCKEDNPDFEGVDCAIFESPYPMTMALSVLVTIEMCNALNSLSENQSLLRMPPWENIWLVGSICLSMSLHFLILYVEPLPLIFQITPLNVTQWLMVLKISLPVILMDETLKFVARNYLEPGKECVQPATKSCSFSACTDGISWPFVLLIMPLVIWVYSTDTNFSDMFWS
Chain of GSK3β-sYFP2 (P49841 whole entry): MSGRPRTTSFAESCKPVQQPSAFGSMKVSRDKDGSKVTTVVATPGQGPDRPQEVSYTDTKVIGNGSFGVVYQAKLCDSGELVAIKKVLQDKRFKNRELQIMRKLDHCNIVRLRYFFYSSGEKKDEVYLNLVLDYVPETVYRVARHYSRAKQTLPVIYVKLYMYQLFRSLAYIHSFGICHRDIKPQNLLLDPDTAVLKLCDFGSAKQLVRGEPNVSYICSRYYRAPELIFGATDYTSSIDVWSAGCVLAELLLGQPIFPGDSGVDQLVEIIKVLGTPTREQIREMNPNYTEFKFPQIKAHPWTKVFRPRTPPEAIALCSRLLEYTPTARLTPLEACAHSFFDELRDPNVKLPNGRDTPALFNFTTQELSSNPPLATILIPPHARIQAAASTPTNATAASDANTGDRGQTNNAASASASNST

| Substance | FRET efficiency | fold change of FRET efficiency after H/R against normoxia |
| --- | --- | --- |
| GSK3β-sYFP2 (from UniProt P49841 1-420) (living HEK293-T cells) | 3.11% | – |
| GSK3β-sYFP2 (from UniProt P49841 1-420) (enzyme) | – | 3 fold |

From paper PMC10250397
